The results in this text go back to patent publication US20250270313A1 (SUNSHINE LAKE PHARMA, published 2025).

As a reminder, the EC50 is the concentration at which the effect is half-maximal. A higher EC50 goes with weaker potency.

Positions count from the first letter of the chain named.

Test [1] concerns the target T1, human Claudin 18.2 (hClaudin18.2) (human, UniProt P56856-2 1-261). Nature of the test: cell-based or functional assay.
Test [2] deals with T1, human Claudin 18.2 (hClaudin18.2). The test can be described thus: flow cytometry on CHO cells overexpressing claudin18.2, scFv-Fc fusion protein. On the technique in general: Flow cytometry measures light scatter and fluorescence of single cells or particles in a stream.
Procedure: CHO overexpressing claudin18.2 cells were prepared and centrifuged at 300 g for 5 minutes, then resuspended in PBS, and this step was repeated twice. Finally, the concentration was adjusted to 3E+06 cells/mL with PBS. […] CHO overexpressing claudin18.1 cells and CHO overexpressing claudin18.2 cells were laid out in two rows of transparent 96 round-bottomed wells, each with 100 μL, and then the antibodies were added to the cells in order and mixed evenly at 1:1. Each was set blank wells and negative wells. The mixture was put in a refrigerator at 4° C. and incubated for 1 hour. After the incubation, the mixture was centrifuged at 500 g for 3 min in a large-capacity benchtop high-speed centrifuge, then resuspended in PBS, and this step was repeated three times. The PE-labeled goat anti-human secondary antibody was diluted to a concentration of 1:500, and 100 μL was added to each well. The blank wells were left alone. The mixture was put in a refrigerator at 4° C. and incubated for 30 min. After the incubation, the mixture was centrifuged at 500 g for 3 min in a large-capacity tabletop high-speed centrifuge, then resuspended in PBS, and this step was repeated three times. Finally, 180 μL of PBS was added to each well and BDverse flow cytometer was used to test.
Test [3] shares this target. Nature of the test: flow cytometry on CHO cells overexpressing claudin18.2, purified murine antibody.
Procedure: CHO overexpressing claudin18.1 cells and CHO overexpressing claudin18.2 cells were prepared, centrifuged at 300 g for 5 minutes, then resuspended in PBS, and this step was repeated twice. Finally, the concentration was adjusted to 3E+06 cells/mL with PBS. […] CHO overexpressing claudin18.1 cells and CHO overexpressing claudin18.2 cells were laid out in two rows of transparent 96 round-bottomed wells, each with 100 μL, and then the antibodies were added to the cells in order and mixed evenly at 1:1. Each was set blank wells and negative wells. The mixture was put in a refrigerator at 4° C. and incubated for 1 hour. After the incubation, the mixture was centrifuged at 500 g for 3 min in a large-capacity benchtop high-speed centrifuge, then resuspended in PBS, and this step was repeated three times. The PE-labeled goat anti-mouse secondary antibody was diluted to a concentration of 1:500, and 100 μL was added to each well. The blank wells were left alone. The mixture was put in a refrigerator at 4° C. and incubated for 30 min. After the incubation, the mixture was centrifuged at 500 g for 3 min in a large-capacity tabletop high-speed centrifuge, then resuspended in PBS, and this step was repeated three times. Finally, 180 μL of PBS was added to each well and BDverse flow cytometer was used to test.
The target in test [4] is T2, hClaudin 18.2 peptide 18.2EL1-A (human).
T2 construct: also called peptide A; A peptide
T2 peptide: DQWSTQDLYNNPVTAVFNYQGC
The test can be described thus: peptide competition: antibody pre-incubated with peptide, then flow cytometry on CHO cells overexpressing claudin18.2.

The target of test [5] is T3, hClaudin 18.2 peptide 18.2EL1-E (human).
T3 construct: also called peptide E; E peptide
T3 peptide: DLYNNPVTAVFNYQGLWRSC
Described as above.

B1: IMAB362 control antibody (antibody, V domains shown)
VH: QVQLQQPGAELVRPGASVKLSCKASGYTFTSYWINWVKQRPGQGLEWIGNIYPSDSYTNYNQKFKDKATLTVDKSSSTAYMQLSSPTSEDSAVYYCTRSWRGNSFDYWGQGTTLTVSS
VL: DIVMTQSPSSLTVTAGEKVTMSCKSSQSLLNSGNQKNYLTWYQQKPGQPPKLLIYWASTRESGVPDRFTGSGSGTDFTLTISSVQAEDLAVYYCQNDYSYPFTFGSGTKLEIKR
As to B1, in test [1], the “ADCC reporter (Jurkat-NFAT-Luc-CD16 luciferase), half-peak concentration EC50, target cell BXPC-3-Claudin 18.2” value (from here on “ADCC reporter … target cell BXPC-3-Claudin 18.2”) was 3.45 ng/mL; the “ADCC reporter (Jurkat-NFAT-Luc-CD16 luciferase), half-peak concentration EC50, target cell Capan-1-Claudin 18.2” value (from here on “ADCC reporter … target cell Capan-1-Claudin 18.2”) came to 3.48 ng/mL; the “ADCC reporter (Jurkat-NFAT-Luc-CD16 luciferase), half-peak concentration EC50, target cell SK-GT-Claudin 18.2” value (shortened to “ADCC reporter … target cell SK-GT-Claudin 18.2”) amounted to 9.06 ng/mL; the “CDC activity (CCK8 cell viability, OD450), half inhibitory concentration IC50, target cell KATOIII-3-Claudin 18.2” value was determined as 4.89 µg/mL.

B2: chimeric antibody 1B6 (antibody, human IgG1, kappa)
heavy: not shown
light: DIVMTQSPSSLTVTAGEKVTMSCKSSQSLFNSGNQKNYLTWYQQKPGQPPKLLIYWASTRESGVPDRFTGSGSGTDFTLTISSVQAEDLAVYFCQNDYSYPLTFGAGTKLELRRTVAAPSVFIFPPSDEQLKSGTASVVCLLNNFYPREAKVQWKVDNALQSGNSQESVTEQDSKDSTYSLSSTLTLSKADYEKHKVYACEVTHQGLSSPVTKSFNRGEC
As to B2, in test [1], the “ADCC reporter … target cell BXPC-3-Claudin 18.2” value came out at 2.11 ng/mL; the “ADCC reporter … target cell Capan-1-Claudin 18.2” value stood at 2.68 ng/mL; the “ADCC reporter … target cell SK-GT-Claudin 18.2” value was 4.47 ng/mL; the “CDC activity (CCK8 cell viability, OD450), half inhibitory concentration IC50, target cell KATOIII-3-Claudin 18.2” value is 2.66 µg/mL.

B3: chimeric antibody 1E7 (antibody, human IgG1, kappa)
heavy: not shown
light: B2 light with T12S, F30L, F93Y, L102F, A106S, L112I, R113K
B3: in test [1], the “ADCC reporter … target cell BXPC-3-Claudin 18.2” value turned out to be 2.7 ng/mL; the “ADCC reporter … target cell Capan-1-Claudin 18.2” value stood at 2.63 ng/mL; the “ADCC reporter … target cell SK-GT-Claudin 18.2” value was determined as 7.07 ng/mL; the “CDC activity (CCK8 cell viability, OD450), half inhibitory concentration IC50, target cell KATOIII-3-Claudin 18.2” value is 1.57 µg/mL.

B4: m1E7-FC anti-Claudin 18.2 scFv-Fc fusion protein (Fc fusion)
scFv: DIVMTQSPSSLSVTAGEKVTMSCKSSQSLLNSGNQKNYLTWYQQKPGQPPKLLIYWASTRESGVPDRFTGSGSGTDFTLTISSVQAEDLAVYYCQNDYSYPFTFGSGTKLEIKGGGGSGGGGSGGGGSQVQLQQPGSELVKPGASVKLSCKASGYTFTSYWMHWVKQRPGQGLEWIGMIHPNSGSTNYNEKFKSKATLTVDKSSSTAYMQLSSLTSEDSAVYYCARRYYGSISPDYWGQGTTLTVSS
notes: also called m1E7 (Fc fusion protein form); 1E7 scFv-Fc; not shown: detected wi
Molecule B4 showed an EC50 in test [2] of roughly 2.6 µg/mL.

B5: m1B6-FC anti-Claudin 18.2 scFv-Fc fusion protein (Fc fusion)
scFv: DIVMTQSPSSLTVTAGEKVTMSCKSSQSLFNSGNQKNYLTWYQQKPGQPPKLLIYWASTRESGVPDRFTGSGSGTDFTLTISSVQAEDLAVYFCQNDYSYPLTFGAGTKLELRGGGGSGGGGSGGGGSEVQLQQSGPELVRPGASVKMSCKASGYTFTDYNMHWVKQSHGKSLEWIGYINPNNGGTSYNQKFKGKATLTVNKSSSTAYMELRSLTSEDSAVYYCVTTRYLAVWGTGTTVTVSS
notes: also called m1B6 (Fc fusion protein form); 1B6 scFv-Fc; not shown: detected wi
Consider B5, for which the EC50 in test [2] was roughly 0.5 µg/mL.

B6: m1E7 anti-Claudin 18.2 murine monoclonal antibody (antibody, mouse IgG2b, kappa)
heavy: QVQLQQPGSELVKPGASVKLSCKASGYTFTSYWMHWVKQRPGQGLEWIGMIHPNSGSTNYNEKFKSKATLTVDKSSSTAYMQLSSLTSEDSAVYYCARRYYGSISPDYWGQGTTLTVSSAKTTPPSVYPLAPGCGDTTGSSVTLGCLVKGYFPESVTVTWNSGSLSSSVHTFPALLQSGLYTMSSSVTVPSSTWPSQTVTCSVAHPASSTTVDKKLEPSGPISTINPCPPCKECHKCPAPNLEGGPSVFIFPPNIKDVLMISLTPKVTCVVVDVSEDDPDVQISWFVNNVEVHTAQTQTHREDYNSTIRVVSTLPIQHQDWMSGKEFKCKVNNKDLPSPIERTISKIKGLVRAPQVYILPPPAEQLSRKDVSLTCLVVGFNPGDISVEWTSNGHTEENYKDTAPVLDSDGSYFIYSKLNMKTSKWEKTDSFSCNVRHEGLKNYYLKKTISRSPGK
light: DIVMTQSPSSLSVTAGEKVTMSCKSSQSLLNSGNQKNYLTWYQQKPGQPPKLLIYWASTRESGVPDRFTGSGSGTDFTLTISSVQAEDLAVYYCQNDYSYPFTFGSGTKLEIKRADAAPTVSIFPPSSEQLTSGGASVVCFLNNFYPKDINVKWKIDGSERQNGVLNSWTDQDSKDSTYSMSSTLTLTKDEYERHNSYTCEATHKTSTSPIVKSFNRNEC
notes: Murine antibody with full heavy and light chains; also called 1E7 (hybridoma); m1E7 mAb
For the molecule B6, in test [3], the EC50 is roughly 0.1 µg/mL. For the same molecule, the binding result in test [4] was “binds”.

B7: m1B6 anti-Claudin 18.2 murine monoclonal antibody (antibody, mouse IgG2b, kappa)
heavy: EVQLQQSGPELVRPGASVKMSCKASGYTFTDYNMHWVKQSHGKSLEWIGYINPNNGGTSYNQKFKGKATLTVNKSSSTAYMELRSLTSEDSAVYYCVTTRYLAVWGTGTTVTVSSAKTTPPSVYPLAPGCGDTTGSSVTLGCLVKGYFPESVTVTWNSGSLSSSVHTFPALLQSGLYTMSSSVTVPSSTWPSQTVTCSVAHPASSTTVDKKLEPSGPISTINPCPPCKECHKCPAPNLEGGPSVFIFPPNIKDVLMISLTPKVTCVVVDVSEDDPDVQISWFVNNVEVHTAQTQTHREDYNSTIRVVSTLPIQHQDWMSGKEFKCKVNNKDLPSPIERTISKIKGLVRAPQVYILPPPAEQLSRKDVSLTCLVVGFNPGDISVEWTSNGHTEENYKDTAPVLDSDGSYFIYSKLNMKTSKWEKTDSFSCNVRHEGLKNYYLKKTISRSPGK
light: B6 light with S12T, L30F, Y93F, F102L, S106A, I112L, K113R
notes: Murine antibody with full heavy and light chains; also called 1B6 (hybridoma); m1B6 mAb
In the case of B7, the EC50 in test [3] is roughly 0.06 µg/mL. Besides, the binding result in test [4] and in test [5] was “binds” each time.
